The values below come from EP0662093B1.

Assay [1] concerns the target native HIV-1MN gp120 (HIV-1 strain MN) (UniProt P05877). The assay can be described thus: radioimmunoassay of hybridoma supernatant on HIV-1MN-infected against uninfected H9 cells.
The target is the same in assay [2]. The assay can be described thus: ELISA of hybridoma supernatant on membranes of HIV-1MN-infected against uninfected H9 cells. For orientation: In an ELISA, binding on a coated surface is turned into a signal by an enzyme label.
The target of assay [3] is peptide aa 302-316 of HIV-1MN gp120 (HIV-1 strain MN). The assay can be described thus: ELISA on coated peptide (250 ng/well); 9.50ng antibody.
Assay [4] has as its target peptide aa 312-326 of HIV-1MN gp120 (HIV-1 strain MN). The assay is described as above.
In assay [5] the target is peptide aa 322-336 of HIV-1MN gp120 (HIV-1 strain MN). The assay is described as above.
The target in assay [6] is peptide aa 302-316 of HIV-1MN gp120 (HIV-1 strain MN). Briefly: ELISA on coated peptide (250 ng/well); 4.75ng antibody.
The target of assay [7] is peptide aa 312-326 of HIV-1MN gp120 (HIV-1 strain MN). Described as above.
Assay [8] addresses peptide aa 322-336 of HIV-1MN gp120 (HIV-1 strain MN). The description is as above.
Assay [9] addresses native HIV-1MN gp120 (HIV-1 strain MN) (UniProt P05877). Briefly: cell-based or functional assay.
For assay [10], the target named is HIV-1 RF gp120 (HIV-1 strain RF) (UniProt P04579). Briefly: cell-based or functional assay.
Assay [11] deals with native HIV-1IIIB gp120 (HIV-1 strain IIIB) (UniProt P04578). The assay can be described thus: cell-based or functional assay.
Assay [12] has as its target peptide aa 302-316 of HIV-1MN gp120 (HIV-1 strain MN). Briefly: ELISA on coated peptide (250 ng/well); 19.0ng antibody.
The target in assay [13] is peptide aa 312-326 of HIV-1MN gp120 (HIV-1 strain MN). The assay is described as above.
In assay [14] the target is peptide aa 322-336 of HIV-1MN gp120 (HIV-1 strain MN). The assay is described as above.
Assay [15] deals with peptide aa 302-316 of HIV-1MN gp120 (HIV-1 strain MN). Briefly: ELISA on coated peptide (250 ng/well); 500ng MIgG.
For assay [16], the target named is peptide aa 312-326 of HIV-1MN gp120 (HIV-1 strain MN). The assay can be described thus: ELISA on coated peptide (250 ng/well); 500ng MIgG.
Assay [17] deals with peptide aa 322-336 of HIV-1MN gp120 (HIV-1 strain MN). The assay can be described thus: ELISA on coated peptide (250 ng/well); 500ng MIgG.

Sequence of UniProt P04579 (P04579 32-519 limits assumed): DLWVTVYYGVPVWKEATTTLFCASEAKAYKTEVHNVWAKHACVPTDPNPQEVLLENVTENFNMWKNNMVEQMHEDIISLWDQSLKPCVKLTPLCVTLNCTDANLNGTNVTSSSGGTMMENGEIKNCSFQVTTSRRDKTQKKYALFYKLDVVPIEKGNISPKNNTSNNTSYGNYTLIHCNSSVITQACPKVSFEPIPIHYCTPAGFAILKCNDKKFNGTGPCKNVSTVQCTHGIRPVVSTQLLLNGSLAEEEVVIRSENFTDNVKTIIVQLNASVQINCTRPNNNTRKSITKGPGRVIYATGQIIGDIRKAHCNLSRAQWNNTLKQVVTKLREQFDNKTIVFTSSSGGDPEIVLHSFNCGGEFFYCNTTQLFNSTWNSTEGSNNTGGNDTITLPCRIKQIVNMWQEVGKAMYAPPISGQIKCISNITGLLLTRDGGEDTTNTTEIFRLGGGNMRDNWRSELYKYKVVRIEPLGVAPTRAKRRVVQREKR

monoclonal antibody NM-01: in [1], the Ratio cpm inf/cpm uninf (RIA) came to 9.81. The ratio infected/uninfected (ELISA, Run 1) in assay [2] was found to be 5.76. The substance also returned an Optical density at 650nm in assay [3] of 0.024 OD 650nm. The substance further yielded an Optical density at 650nm in [4] of 0.827 OD 650nm. This substance yielded an Optical density at 650nm in [5] of 0.028 OD 650nm. This substance registered an Optical density at 650nm in assay [6] of 0.024 OD 650nm. Further, the Optical density at 650nm in assay [7] amounted to 0.781 OD 650nm. Moreover, the Optical density at 650nm in assay [8] is 0.03 OD 650nm. Also, in [9], the 50% inhibition of viral infectivity (ID50), live MN virus, RT assay was < 1 µg/mL; the 50% inhibition of viral infectivity (ID50), live MN virus, RT assay (run with F58/H3 and P4/D10) was < 1 µg/mL; the ID50, inhibition of syncytium formation by MN-infected H9 cells with C8166 cells is 2 µg/mL; the ID50, neutralization of live MN isolate, MT-2 assay stood at 2 µg/mL. In [9], this substance showed a percent inhibition of syncytium formation by MN-infected cells at 25 µg antibody of 85%. Further, in assay [10], the ID50, inhibition of live RF virus, RT assay came to 0.05 µg/mL; the ID50, inhibition of syncytium formation by RF-infected cells stood at 4 µg/mL; the percent inhibition of syncytium formation by RF-infected cells at 25 µg antibody worked out at 59%. In [11], this substance had an ID50, inhibition of syncytium formation by IIIB-infected H9 cells with C8166 cells of 3 µg/mL; an ID50, neutralization of live IIIB isolate, MT-2 assay of 0.1 µg/mL; an ID50, neutralization of live IIIB virus, RT assay of 0.1 µg/mL; an ID50, neutralization of live IIIB virus, RT assay (run with F58/H3 and P4/D10) of 0.1 µg/mL. In [11], the percent inhibition of syncytium formation by IIIB-infected cells at 25 µg antibody was determined as 85%. This substance also displayed an Optical density at 650nm in assay [12] of 0.024 OD 650nm. In [13], this substance returned an Optical density at 650nm of 1.14 OD 650nm. In [14], this substance had an Optical density at 650nm of 0.03 OD 650nm.
As to mouse IgG (antibody), the Optical density at 650nm in assay [15] amounted to 0.049 OD 650nm; in assay [16], 0.043 OD 650nm; in [17], 0.042 OD 650nm.
